Experimental findings from US6919309B2, “Methods and compositions for inhibiting angiogenesis” (Northwestern University, priority 1997, dated 2005) are described below.

Entries after “also recorded” stand apart in the source; their conditions may differ.

One test relates to SK-N-BE(2) tumors. Briefly: Differentiation of human neuroblastoma tumors in athymic mice (neurofilament staining). In kind it is in vivo, mouse. The note with it: 2 μg PEDF per day intratumoral, 4 days. As to the method:
In vivo experiments were conducted to determine the effect of PEDF on neuroblastoma tumors. […] When the tumors grew to a palpable size (approximately 8 mm in diameter) PEDF treatment was started. A total of 2 μg of purified histidine-tagged PEDF in a volume of 100 μl of phosphate buffered saline was injected into 2-3 sites/tumor each day for 4 consecutive days. On the fifth day, the mice were euthanized by an overdose of metaphane, and the tumors were surgically removed. Tumor tissue was sliced and placed in buffered formalin for at least 24 hours. Tissue was embedded in paraffin and prepared for histologic examination. Sections were stained with an antibody that recognized neurofilament protein (Dako, Carpinteria, Calif.). […] A total of six SK-N-BE(2) tumors were treated with PEDF and 6/6 were moderately to strongly positive for neurofilament staining.

Test [1] relates to capillary endothelial cells. Briefly: bFGF-induced proliferation of capillary endothelial cells. The note with it: PEDF doses of 1.0 nM or greater. The class given is cell-based. The source says: Human PEDF cDNA was engineered by polymerase chain reaction to encode a COOH-terminal hexahistidine tag, cloned into pCEP4 (Invitrogen, Carlsbad, Calif.), and transfected into human embryonic kidney cells. Recombinant PEDF was purified from the conditioned media with the Xpress Protein Purification System (Invitrogen, Carlsbad, Calif.).

The test system of test [2] is bovine adrenal capillary endothelial cells. Briefly: Endothelial cell migration assay (modified Boyden chamber), bovine adrenal capillary endothelial cells. In kind it is cell-based. As to the method: (§1) The cells were plated on gelatinized Nucleopore membranes (5 μm pores for bovine capillary cells and 8 μm pores for other cells) in an inverted modified Boyden chamber. After two hours, the chamber was reinverted and test substances added to the top wells of each. Specifically, populations were exposed to either culture medium alone (control), 10 ng/ml bFGF, 2 nM PEDF (full length PEDF), or both 10 ng/ml bFGF (basic fibroblast growth factor) and 10 nM PEDF. The cells were then permitted to migrate for 3-4 hours. Following this, the membranes were fixed and stained, and the number of cells that had migrated were counted.
The amount of a given factor necessary to achieve 50% of migration was determined and is reported here as ED50.
In particular, aFGF was employed at a concentration of 50 ng/ml, bFGF was employed at a concentration of 10 ng/ml, IL-8 was employed at a concentration of 40 ng/ml, PDGF was employed at a concentration of 250 pg/ml, and VEGF was employed at a concentration of 100 pg/ml.
In studies aimed at identifying antiangiogenic factors in the eye that might be regulated by the retinoblastoma tumor suppressor gene (Rb), media was fractionated where the media was previously conditioned by a retinoblastoma cell line that had been infected with a retrovirus expressing the wild-type Rb gene, WERI-Rb-27R. (Xu et al., 1991, Cancer Res. 51:4481). […] PEDF was purified from WERI-Rb-27R serum-free conditioned media by sequential steps consisting of dialysis (molecular mass cutoff, 30 kD) against distilled water, 60 to 95% ammonium sulfate precipitation, step elution from lentil lectin Sepharose 4B (Pharmacia) with 0.5 M α-methyl-D-mannopyranoside, and elution from a HiTrap heparin Sepharose column (Pharmacia) with increasing NACl gradient. (Xu, et al., 1991, Cancer Res. 51:4481). […] Migration assays were performed in quadruplicate for each sample with bovine adrenal capillary endothelial cells or human dermal microvascular endothelial cells (Clonetics, San Diego, Calif.) as described. (Polverini, et al., 1991, Methods Enzymol. 198:440). To combine multiple experiments, background migration (Bkgd) was first subtracted toward vehicle (0.1% bovine serum albumin) and them normalized data by setting maximum migration toward inducer alone to 100%. All experiments were repeated two to five times. Statistics were performed on raw data before normalization with the Student's t test. Standard errors were converted to percentages. […] Single-letter abbreviations for the amino acid residues are as follows: A, Ala; D, Asp; E. Glu; F. Phe; G, Gly; I, Ile; L, Leu; M, Met; P, Pro; Q, Gln; R, Arg; S, Ser; T, Thr; V, Val; X, any amino acid; and Y, Tyr.

Test [3] relates to human dermal microvascular endothelial cells. Put plainly: Endothelial cell migration assay (modified Boyden chamber), human dermal microvascular endothelial cells. The class given is cell-based. The note with it: 10 ng/ml bFGF plus PEDF; FIG. 1. The procedure: as §1
Additional truncated peptides derived from PEDF were tested for efficacy in the endothelial cell migration assay using human dermal microvascular endothelial cells (Clonetics, Cell Systems) at passage 9 in a modified Boyden Chamber, as described above, and the results are shown in FIG. 7. In FIG. 7A, the cells were exposed to the gradient of VEGF in the presence of purified recombinant PEDF (rPEDF), bacterially produced PEDF (BH) or PEDF peptides containing only amino acid residues 78-121 (44-mer) and 44-77 (34-mer) referring to SEQ ID NO:1. Neutralizing antibodies were added where shown to verify if the anti-angiogenic effect is specific to PEDF peptides and not due to contamination. Both full length PEDF preparations were used at 25 nM, neutralizing polyclonal antiserum against PEDF was used at 1:200 dilution, recombinant human VEGF (R&D Systems) at 200 pg/ml. In FIG. 7B, the cells were exposed to the gradient of VEGF in the presence of increasing concentrations of 34-mer and 44-mer peptides. The antiserum used in this experiment was not affinity purified, whereas the antiserum used in all other experiments presented herein was affinity purified.

The subject of test [4] is endothelial cells isolated from human umbilical chords. Briefly: Endothelial cell migration assay, endothelial cells from human umbilical chords. The note with it: 10 ng/ml bFGF plus PEDF; FIG. 1. In kind it is cell-based. The procedure: The migration of different vascular endothelial cell types was determined by adding PEDF to cultured endothelial cells, specifically, endothelial cells isolated from bovine adrenal capillaries, human umbilical chords, and human dermal microvascular tissue.
as §1

Test [5] deals with skin of athymic (nude/nude) mice. Briefly: Hair follicle density in skin of athymic nude mice after PEDF injection. To be noted: 2 μg purified PEDF daily for four days into tumors; FIG. 8. The class given is in vivo, mouse. As to the method: FIG. 8, comprising FIGS. 8A, 8B and 8C, is a series of images of photomicrographs of sections of skin obtained from animals treated with PEDF, wherein hair follicles are depicted. Human neuroblastoma tumors growing subcutaneously in nude mice were injected at 2-3 sites/tumor for four consecutive days with 2 μg of purified PEDF. On the fifth day, hair was noticed growing over the treated tumors. […] Similar increases in hair follicle density have been seen in the absence of tumors following injection of purified PEDF.
The treatment consisted of injecting a total of 2 μg of purified histidine-tagged PEDF in a volume of 100 μl of phosphate buffered saline into 2-3 sites/tumor each day for 4 consecutive days. On the fifth day, a small area of increased hair growth was noticed over the injection sites. The mice were euthanized using an overdose of metaphane, and the tumors were surgically removed. Tumor tissue was sliced and placed in buffered formalin for at least 24 hours. Tissue was embedded in paraffin and prepared for histologic examination. The skin overlying neuroblastoma tumors treated with PEDF had increased hair follicle density when compared with the skin overlying tumors injected with saline vehicle (FIG. 8). Similar increases in hair follicle density have been seen in the absence of tumors following injection of purified PEDF.

B1: PEDF: full length pigment epithelium derived growth factor, SEQ ID NO:1; purified from WERI-Rb-27R medium or recombinant histidine-tagged (protein, listed as Homo Sapiens)
chain: MQALVLLLCIGALLGHSSCQNPASPPEEGSPDPDSTGALVEEEDPFFKVPVNKLAAAVSNFGYDLYRVRSSMSPTTNVLLSPLSVATALSALSLGADERTESIIHRALYYDLISSPDIHGTYKELLDTVTAPQKNLKSASRIVFEKKLRIKSSFVAPLEKSYGTRPRVLTGNPRLDLQEINNWVQAQMKGKLARSTKEIPDEISILLLGVAHFKGQWVTKFDSRKTSLEDFYLDEERTVRVPMMSDPKAVLRYGLDSDLSCKIAQLPLTGSMSIIFFLPLKVTQNLTLIEESLTSEFIHDIDRELKTVQAVLTVPKLKLSYEGEVTKSLQEMKLQSLFDSPDFSKITGKPIKLTQVEHRAGFEWNEDGAGTTPSPGLQPAHLTFPLDYHLNQPFIFVLRDTDTGALLFIGKILDPRGP
With B1, the “tumors moderately to strongly positive for neurofilament staining / tumors treated” value with SK-N-BE(2) tumors is given as 6/6. In addition, the “inhibition of bFGF-induced proliferation” value in test [1] was 40%. Also, the “migration, percentage of maximal migration” value in test [2] (10 ng/ml bFGF plus PEDF, FIG. 1) was “considerably less migration was observed”; in test [3], “considerably less migration was observed”; in test [4], “considerably less migration was observed”. Besides, the “migration toward different angiogenic inducers” value in test [2] (0.1 μg/ml PEDF, aFGF, bFGF, IL-8, PDGF, VEGF, FIG. 3) was “considerably inhibited; also recorded: inhibited endothelial cell migration toward every angiogenic inducer we tested”. Also, the “potency at inhibiting endothelial cell migration, dose response” value in test [2] (migration towards bFGF, FIGS. 4 and 5) is “active at sub-nanomolar concentrations”. Further, the “density of hair follicles compared with vehicle-treated skin” value in test [5] was “three-fold increased density of hair follicles”.
